Data as given in doi:10.1101/2023.10.09.561484.

Tests used:
[1] = target: EGFP-Pro(K10R) (Streptomyces mobaraensis); experiment: BLI
[2] = target: EGFP-Pro(K10R/Y12A) (Streptomyces mobaraensis); experiment: BLI

B1: ΔproMTG lacking the C-terminal His-tag (recombinant mature microbial transglutaminase) (enzyme)
chain: DSDDRVTPPAEPLDRMPDPYRPSYGRAETVVNNYIRKWQQVYSHRDGRKQQMTEEQREWLSYGCVGVTWVNSGQYPTNRLAFASFDEDRFKNELKNGRPRSGETRAEFEGRVAKESFDEEKGFQRAREVASVMNRALENAHDESAYLDNLKKELANGNDALRNEDARSPFYSALRNTPSFKERNGGNHDPSRMKAVIYSKHFWSGQDRSSSADKRKYGDPDAFRPAPGTGLVDMSRDRNIPRSPTSPGEGFVNFDYGWFGAQTEADADKTVWTHGNHYHAPNGSLGAMHVYESKFRNWSEGYSDFDRGAYVITFIPKSWNTAPDKVKQGWP
For B1, the Kd [1] was 0.019 µM and the Kd [2] was 7.85 µM.
